“Also recorded” adds a separate entry of the source.
Key:
Aβ [1] = target: T1, Aβ (Homo sapiens, UniProt P05067); test: Static light scattering (SLS) of Aβ fibrillar growth; type: biochemical; settings: ratio as for ThT assay, Malvern Zetasizer Nano, n = 3
T1 construct: purchased Anaspec Inc
Experimental: Increases in the size of Aβ in the presence and absence of FapCS or bLgS were monitored by SLS. Solution of Aβ with FapCS or bLgS, at a similar ratio as for the ThT assay, was prepared and incubated. SLS measurements were performed at different time intervals using a Malvern Zetasizer Nano. The parameters were fixed at 7 for attenuator and 4.20 mm for cell position. Quartz cells with low volume capacity (100 µL) were used. The light scattering intensities (kilo counts per sec) and the refractive indices of the samples, buffer alone and toluene were measured.

Aβ [2] = target: T1, Aβ; test: ThT kinetic assay of Aβ fibrillization (seeding with FapC species, Aβ seeds, bLgS); type: biochemical; settings: 37 °C, n = 3; for effect on Aβ fibrillization (ThT): Aβ 50 × 10^−6 M, seeds/FapC species 5 × 10^−6 M, ThT fluorescence ex 445/em 485 nm; for effect on rate constant k of Aβ (in words): 5 × 10^−6 M with Aβ 50 × 10^−6 M, FapCS *, p < 0.05, FapC monomer and fibrils **, p < 0.005
Experimental: FapC seeds (FapCS) were produced by FapC fibrils of three different ages. The FapC monomers were produced as described^[ ^45 ^] and stored in 6 M GdmCl. Prior to fibrillization, the FapC monomers were purified via a PD10 desalting column. FapC monomers (1 mg mL^−1 or 40 × 10^−6 M) were incubated in deionized water at 37 °C for 1 week to produce mature fibrils and at 37 °C or 25 °C for 4 d to obtain young fibrils. Deionized water was used to make FapC fibrils as it is convenient to transfer the samples to other experimental conditions, i.e., buffered Aβ solution or PBS for in vivo microinjection. However, bacterial amyloids like FapC and curli can make amyloids over a range of conditions.^[ ^93 ^] FapCS were produced by sonicating an aqueous solution of FapC fibrils (10 × 10^−6 M) at 20 power of a probe sonicator (Sonics Vibracell: 750 watts and 20 kHz) for 2 min with 1 s on/off cycle. For in vitro cross‐seeding experiments, 50 × 10^−6 M of Aβ monomers were incubated with 5 × 10^−6 M of FapCS (10:1 molar ratio, Aβ:FapCS) at 37 °C. bLg amyloids were synthesized by heating of bLg monomers (80 °C, pH 2) of 10 mg mL^−1 solution for 24 h. Prior to the production of bLgS, the bLg amyloid solution was brought to pH 7 and then sonicated, similar to FapC, to generate bLgS.
Aβ (Anaspec Inc., purity ≥ 95%) was dissolved in 100 µL of hexafluoro‐2‐propanol (HFIP) and incubated at room temperature for 3 h. The acquired aliquots of this solution were freeze dried and stored at −20 °C for further experimentation. […] For the ThT kinetic assay, a 100 µL of aqueous solution containing Aβ (50 × 10^−6 M), FapCS or bLgS (5 × 10^−6 M) and ThT dye (100 × 10^−6 M) was incubated (37 °C) in a 96‐well plate. The ThT fluorescence (excitation: 445 nm/ emission: 485 nm) was recorded at specified time intervals for 50 h. Kinetic parameters (rate constant k, half‐life t 1/2 and lag‐time) were calculated as described.^[ ^94 ^] Briefly, kinetic curves were fitted to a sigmoidal curve =y0+ymax−y0/1+e^−(t−t1/2)k , where y 0 and y max are initial and final ThT fluorescence values, allowing us to calculate lag time = t 1/2 − 2/k.

Aβ [3] = target: T1, Aβ; test: TEM imaging of Aβ with FapC species or bLgS; settings: 12 h incubation, uranyl acetate negative stain
Experimental: (§1) Aβ incubated in the presence or absence of FapCS, FapC monomers, FapC fibrils or bLgS were subjected to TEM imaging. After incubation for 12 h, a drop of sample was applied on a glow‐discharged carbon‐coated copper grid. After 1 min, the sample was blotted and then negatively stained with uranyl acetate (1%) for 30 s. The dried grid was then imaged with a Technei F20 TEM at 200 kV. For AFM, a drop of sample was placed on freshly cleaved mica surface and rinsed with water after 2 min and dried with pressurized air. The sample was scanned with an AFM (Nanoscope VIII Multimode Scanning Force Microscopes, Bruker), covered with an acoustic hood to minimize the vibrational noise. Images were acquired under the tapping mode with a silicon nitride cantilever (Bruker). AFM images were processed with Nanoscope Analysis 1.5 software to flatten the background and to calculate the statistical parameters.

Aβ monomers = test: Isothermal titration calorimetry (ITC); type: binding; settings: Aβ 200 × 10^−6 M into 20 × 10^−6 M seeds, 0.1% NH4OH, 25 °C
Experimental: ITC (Malvern MicroCal iTC200) was used to explore the interaction between Aβ monomers and oligomers (Aβo) with FapCS. Sample solutions were degassed at 25 °C while stirring (100 rpm). Aβ (200 × 10^−6 M, 40 µL) was filled into the syringe while FapCS or bLgS (20 × 10^−6 M, 200 µL) were filled in the cell (coin shaped). 0.1% NH4OH buffer solution was used for both solutions. Aβ was injected into the cell at an injection volume of 2 µL at the duration of 4 s and with a spacing of 180 s. First injection was 0.2 µL for 0.4 s duration and a total of 16 injections were programed. The heat exchange was recorded with a Microcal analysis (origin v7) software. The heat of dilution (Aβ against buffer) was subtracted from the interaction heat of samples. The acquired curves were fitted to a sequential binding model and thermodynamic parameters of binding energy (ΔH), free energy (ΔG), and entropic factor (TΔS) were calculated. Aβo for the ITC experiments was prepared by incubating Aβ aqueous solution (200 × 10^−6 M) at 4 °C for 48 h.^[ ^65 ^]

Aβ [4] = target: T1, Aβ; test: Circular dichroism spectroscopy, secondary structure; settings: incubation with Aβ, Figure S7
Experimental: Solutions of 200 µL, at similar molar ratios as for ThT assay, were prepared and incubated at 37 °C. CD spectra for different samples at 0, 12 and 48 h were measured with a CD spectrophotometer (Jasco) from 190 to 240 nm (1 nm step size). The percentage secondary structure was calculated by the CD data via Dichroweb analysis with parameters of Contin/reference set 4.^[ ^95 ^]

Aβ fibrils = test: AFM of fibrils, FiberApp statistical analysis
Experimental: as §1

bLgS: seeds from whey protein β‐lactoglobulin amyloids by sonication [reference compound]
Aβ fibrillar growth by SLS (Aβ [1]): did not render any acceleration of Aβ fibrillization
effect on Aβ fibrillization (ThT) (Aβ [2]): did not render any acceleration of Aβ fibrillization
TEM observation (Aβ [3]): did not render any acceleration of Aβ fibrillization
binding to Aβ by ITC (in words) (Aβ monomers): Insubstantial binding
effect on secondary structure (in words) (Aβ [4]): did not induce β‐sheet formation in Aβ; also recorded: α‐helical and random‐coil structures of bLgS were slightly increased

B1: FapC monomers: monomeric FapC, purified via a PD10 desalting column (protein)
chain: GNEGGWHPPKPNPQSNNKGGATALVVDTQQNYNNKVSNFGTLNNASVSGSIKDASGNVGVNVAAGDNNQQANAAALASADASFVFGTATASTSVLQSGYGNTLNNYSNPNTASLSNSANNVSGNLGVNVAAGNFNQQKNDLAAAVSNGQYSTAGSAASQTSTGNTTVNSANYAYGGTYVSLKLNADGSYKGTSDQIGDVYLDTWEGQTHPGGSNTGHIDVDSQAQGAKDLNHDGGAFAFKEKGDVDLKGTVSGFIPAIVGFKTPVTNNASLSNSLQNVSGNVGVNIAAGGGNQQSNSLSIAAGCSSCPAGGESLGF
effect on rate constant k of Aβ (in words) (Aβ [2]): significantly suppressed
effect on Aβ fibrillization (ThT) (Aβ [2]): lacked such acceleratory effect
TEM observation (Aβ [3]): appeared to aggregate on top of Aβ fibrils

B2: FapCS derived from younger FapC fibrils: seeds from FapC fibrils fibrillated for 4 d at 37 °C and 25 °C (protein, UniProt Q9I2F0 25-340, looked up)
Functional amyloid subunit …: GNEGGWHPPKPNPQSNNKGGATALVVDTQQNYNNKVSNFGTLNNASVSGSIKDASGNVGVNVAAGDNNQQANAAALASADASFVFGTATASTSVLQSGYGNTLNNYSNPNTASLSNSANNVSGNLGVNVAAGNFNQQKNDLAAAVSNGQYSTAGSAASQTSTGNTTVNSANYAYGGTYVSLKLNADGSYKGTSDQIGDVYLDTWEGQTHPGGSNTGHIDVDSQAQGAKDLNHDGGAFAFKEKGDVDLKGTVSGFIPAIVGFKTPVTNNASLSNSLQNVSGNVGVNIAAGGGNQQSNSLSIAAGCSSCPAGGESLGF
modifications: sonicated fibril seeds
notes: seeds from FapC fibrils fibrillated for 4 d at 37 °C and 25 °C
effect on Aβ fibrillization (ThT) (Aβ [2]): accelerated Aβ fibrillization (Figure S3, Supporting Information), but less than the seeds derived from mature FapC fibrils

B3: FapC fibrils: FapC incubated in deionized water at 37 °C for 1 week, nonsonicated fibrils (protein)
chain: GNEGGWHPPKPNPQSNNKGGATALVVDTQQNYNNKVSNFGTLNNASVSGSIKDASGNVGVNVAAGDNNQQANAAALASADASFVFGTATASTSVLQSGYGNTLNNYSNPNTASLSNSANNVSGNLGVNVAAGNFNQQKNDLAAAVSNGQYSTAGSAASQTSTGNTTVNSANYAYGGTYVSLKLNADGSYKGTSDQIGDVYLDTWEGQTHPGGSNTGHIDVDSQAQGAKDLNHDGGAFAFKEKGDVDLKGTVSGFIPAIVGFKTPVTNNASLSNSLQNVSGNVGVNIAAGGGNQQSNSLSIAAGCSSCPAGGESLGF
pitch size of fibrils (Aβ fibrils; FiberApp): 26 nm
fibril diameter (Aβ fibrils; from fibril heights, mean ± SD): 3.6 ± 1.0 nm
effect on rate constant k of Aβ (in words) (Aβ [2]): significantly suppressed
effect on Aβ fibrillization (ThT) (Aβ [2]): lacked such acceleratory effect; also recorded: significantly suppressed
TEM observation (Aβ [3]): did not coat FapC fibrils

From publication PMC7509637 (Advanced Science, 2020)
